{
  "source": "patent US20120027722A1",
  "about": "(MEDICAL RESEARCH COUNCIL, published 2012)",
  "key": {"[1]": {"biological_target": "T1, Peptide D3", "T1 construct": "member of the group m28", "assay": "peptide ELISA: biotinylated peptide on streptavidin plate, COS7 supernatant, anti-human kappa HRP, OD 655 nm"}, "[2]": {"biological_target": "T2, AP33 mimotope peptide H6", "T2 construct": "captured on streptavidin plates; also called mimotope H6; H6 peptide", "T2 peptide": "VELRNLGGTWRPGSGK-biotin", "assay": "peptide ELISA: biotinylated peptide on streptavidin plate, COS7 supernatant, anti-human kappa HRP, OD 655 nm"}, "[3]": {"biological_target": "T3, E2 peptide B1 (Hepatitis C virus, genotype 2b (Table 5))", "assay": "peptide ELISA: biotinylated peptide on streptavidin plate, COS7 supernatant, anti-human kappa HRP, OD 655 nm"}, "[4]": {"biological_target": "T2, AP33 mimotope peptide H6", "assay": "peptide ELISA: biotinylated peptide on streptavidin plate, COS7 supernatant, anti-human kappa HRP, OD 655 nm"}, "[5]": {"biological_target": "T4, HCV E1E2 heterodimer expressed on the surface of 293T cells (Hepatitis C virus (isolate ))", "T4 construct": "whole, on cells; also called cell surface expressed E2; E1E2 Scatchard", "assay": "Scatchard analysis, 125I-antibody versus unlabeled antibody on E1E2-transfected 293T cells"}, "[6]": {"biological_target": "T5, soluble HCV E2 truncated at amino acid 661 (sE2661), His-tagged (Hepatitis C virus (isolate ))", "T5 construct": "extracellular domain; also called soluble E2", "assay": "SPR (BIAcore A100), antibody captured on anti-human Fc chip, sE2 injected 1.56-50 nM, 1:1 Langmuir fit"}, "[7]": {"biological_target": "HCV E1E2 glycoproteins, isolate 5.15.11 (on HCVpp) (Hepatitis C virus genotype 5 (5.15.11))", "assay": "cell-based or functional assay"}, "[8]": {"biological_target": "HCV E1E2 glycoproteins, isolate 4.21.16 (on HCVpp) (Hepatitis C virus genotype 4 (4.21.16))", "assay": "cell-based or functional assay"}, "[9]": {"biological_target": "HCV E1E2 glycoproteins, isolate 2A2.4 (on HCVpp) (Hepatitis C virus genotype 2 (2A2.4))", "assay": "cell-based or functional assay"}, "[10]": {"biological_target": "HCV E1E2 glycoproteins, isolate 1A20.8 (on HCVpp) (Hepatitis C virus genotype 1 (1A20.8))", "assay": "cell-based or functional assay"}, "[11]": {"biological_target": "HCV E1E2 glycoproteins, isolate 1B5.23 (on HCVpp) (Hepatitis C virus genotype 1 (1B5.23))", "assay": "cell-based or functional assay"}, "[12]": {"biological_target": "HCV E1E2 glycoproteins, genotype 2a isolate JFH1 (on HCVpp) (Hepatitis C virus genotype 2a (JFH1), UniProt Q99IB8 192-383; Q99IB8 384-750)", "sequence (Q99IB8 192-383 limits assumed, chain 1 of 2)": "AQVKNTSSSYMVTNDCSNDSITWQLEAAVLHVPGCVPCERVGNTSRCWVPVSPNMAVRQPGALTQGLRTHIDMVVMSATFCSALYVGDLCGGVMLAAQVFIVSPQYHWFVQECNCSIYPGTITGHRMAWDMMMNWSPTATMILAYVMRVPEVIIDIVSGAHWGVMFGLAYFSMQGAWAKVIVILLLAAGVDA", "sequence (Q99IB8 384-750 limits assumed, chain 2 of 2)": "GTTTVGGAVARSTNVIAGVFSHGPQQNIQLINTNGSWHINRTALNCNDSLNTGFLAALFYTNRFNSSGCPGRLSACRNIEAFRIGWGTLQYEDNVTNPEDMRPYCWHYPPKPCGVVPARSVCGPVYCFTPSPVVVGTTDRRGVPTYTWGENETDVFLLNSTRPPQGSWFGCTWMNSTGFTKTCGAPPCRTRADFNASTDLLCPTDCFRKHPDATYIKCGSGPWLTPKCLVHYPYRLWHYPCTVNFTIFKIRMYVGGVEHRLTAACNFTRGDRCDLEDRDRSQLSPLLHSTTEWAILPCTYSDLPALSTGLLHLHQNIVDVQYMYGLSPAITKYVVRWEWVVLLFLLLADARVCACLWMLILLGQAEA", "assay": "cell-based or functional assay"}, "[13]": {"biological_target": "HCV E1E2 glycoproteins, isolate 6.5.8 (on HCVpp) (Hepatitis C virus genotype 6 (6.5.8))", "assay": "cell-based or functional assay"}, "[14]": {"biological_target": "HCV E1E2 glycoproteins, isolate 2B1.1 (on HCVpp) (Hepatitis C virus genotype 2 (2B1.1))", "assay": "cell-based or functional assay"}, "[15]": {"biological_target": "HCV E1E2 glycoproteins, genotype 3a isolate F4/2-35 (on HCVpp) (Hepatitis C virus genotype 3a (F4/2-35))", "assay": "cell-based or functional assay"}, "[16]": {"biological_target": "HCV E1E2 glycoproteins, genotype 1b (Con1) (Hepatitis C virus genotype 1b (Con1), UniProt Q9WMX2 192-383; Q9WMX2 384-746)", "sequence (Q9WMX2 192-383 limits assumed, chain 1 of 2)": "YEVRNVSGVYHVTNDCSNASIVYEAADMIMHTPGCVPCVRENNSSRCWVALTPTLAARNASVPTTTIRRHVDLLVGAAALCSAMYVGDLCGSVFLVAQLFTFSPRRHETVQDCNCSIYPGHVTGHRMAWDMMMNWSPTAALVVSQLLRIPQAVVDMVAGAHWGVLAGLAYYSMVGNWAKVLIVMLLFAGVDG", "sequence (Q9WMX2 384-746 limits assumed, chain 2 of 2)": "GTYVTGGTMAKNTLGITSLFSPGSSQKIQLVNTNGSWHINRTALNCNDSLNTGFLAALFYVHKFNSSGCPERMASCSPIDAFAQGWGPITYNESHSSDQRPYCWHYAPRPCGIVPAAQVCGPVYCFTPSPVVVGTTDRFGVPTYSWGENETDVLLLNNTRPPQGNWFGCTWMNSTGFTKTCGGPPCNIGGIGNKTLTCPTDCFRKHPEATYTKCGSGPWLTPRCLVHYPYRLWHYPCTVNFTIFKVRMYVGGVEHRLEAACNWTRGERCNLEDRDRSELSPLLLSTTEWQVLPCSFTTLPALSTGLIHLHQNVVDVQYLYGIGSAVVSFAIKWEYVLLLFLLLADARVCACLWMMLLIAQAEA", "assay": "cell-based or functional assay"}, "[17]": {"biological_target": "HCV E1E2 glycoproteins, genotype 2a (J6) (Hepatitis C virus genotype 2a (J6))", "assay": "cell-based or functional assay"}, "[18]": {"biological_target": "T4, HCV E1E2 heterodimer expressed on the …", "assay": "Scatchard analysis, 125I-Fab versus unlabeled Fab on E1E2-transfected 293T cells"}, "[19]": {"biological_target": "T5, soluble HCV E2 truncated at amino acid …", "assay": "SPR (BIAcore), sE2"}, "[20]": {"biological_target": "T1, Peptide D3", "assay": "peptide ELISA: biotinylated peptide on streptavidin plate, COS7 supernatant, anti-human kappa HRP, OD 655 nm", "remark": "listed apart in the source"}, "[21]": {"biological_target": "T6, E2 peptide C2 (Hepatitis C virus, genotype 1a (Table 5), not fully specified (residue 16, C-terminus))", "T6 peptide": "QLINTNGSWHVNGSGK", "assay": "peptide ELISA: biotinylated peptide on streptavidin plate, COS7 supernatant, anti-human kappa HRP, OD 655 nm"}, "[22]": {"biological_target": "T2, AP33 mimotope peptide H6", "assay": "peptide ELISA: biotinylated peptide on streptavidin plate, COS7 supernatant, anti-human kappa HRP, OD 655 nm"}, "[23]": {"biological_target": "T3, E2 peptide B1", "assay": "peptide ELISA: biotinylated peptide on streptavidin plate, COS7 supernatant, anti-human kappa HRP, OD 655 nm", "remark": "listed apart in the source"}, "[24]": {"biological_target": "T1, Peptide D3", "assay": "peptide ELISA: biotinylated peptide on streptavidin plate, COS7 supernatant, anti-human kappa HRP, OD 655 nm", "remark": "listed apart in the source"}, "[25]": {"biological_target": "T2, AP33 mimotope peptide H6", "assay": "peptide ELISA: biotinylated peptide on streptavidin plate, COS7 supernatant, anti-human kappa HRP, OD 655 nm"}, "[26]": {"biological_target": "T3, E2 peptide B1", "assay": "peptide ELISA: biotinylated peptide on streptavidin plate, COS7 supernatant, anti-human kappa HRP, OD 655 nm", "remark": "listed apart in the source"}},
  "note": "Where two headings read alike, the source gives them in different places. No end group written: not given here.",
  "data": [
    {"binder": "humanized AP33 antibody RHb-h/RK2bc (antibody, V domains shown, also called RHbcdefgh/RK2bc) VH: QVQLQESGPGLVKPSETLSLTCTVSGDSITSGYWNWIRQPPGRALEYMGYISYSGSTYYNLSLRSRITISRDTSKNQYSLRLSSVTAADTAMYYCALITTTTYAMDYWGQGTTVTVS VL: EIVLTQSPSSLSASVGDRVTITCRASESVDGYGNSFLHWFQQKPGKAPKLLIYLASNLNSGVPSRFSGSGSRTDFTLTISSLQPEDFATYYCQQNNVDPWTFGQGTKLEIK", "values": [
      {"measurement": "EC50 (read off the curve)", "setting": "[1]", "value": "~0.05", "unit": "µg/mL"},
      {"measurement": "EC50 (read off the curve)", "setting": "[2]", "value": "~0.04", "unit": "µg/mL"},
      {"measurement": "binding result", "setting": "[3]", "value": "no binding (tested: about 1400 ng/ml)"},
      {"measurement": "EC50 (read off the curve)", "setting": "[4]", "value": "~0.03", "unit": "µg/mL"}
    ]},
    {"binder": "humanized AP33 antibody RH-C/RK2b (antibody, V domains shown, also called RH-C antibody) VH: QVQLQESGPGLVKPSETLSLTCTVSGDSITSGYWNWIRQPPGRALEWMGYISYSGSTYYNLSLRSRITISRDTSKNQYSLRLSSVTAADTAMYYCALITTTTYAMDYWGQGTTVTVSS VL: EIVLTQSPSSLSASVGDRVTITCRASESVDGYGNSFLHWFQQKPGKAPKLLIYLASNLNSGVPSRFSGSGSGTDFTLTISSLQPEDFATYYCQQNNVDPWTFGQGTKLEIK", "values": [
      {"measurement": "Kd", "setting": "[5]", "value": 5, "unit": "nM"},
      {"measurement": "Kd", "setting": "[6]", "value": 3.8, "unit": "nM"},
      {"measurement": "IC50 of HCVpp infection (Huh-7, luciferase)", "setting": "[7]", "value": 0.053, "unit": "µg/mL"},
      {"measurement": "IC90 of HCVpp infection (Huh-7, luciferase)", "setting": "[7]", "value": 0.82, "unit": "µg/mL"},
      {"measurement": "IC50 of HCVpp infection (Huh-7, luciferase)", "setting": "[8]", "value": "< 0.41", "unit": "µg/mL"},
      {"measurement": "IC90 of HCVpp infection (Huh-7, luciferase)", "setting": "[8]", "value": 0.92, "unit": "µg/mL"},
      {"measurement": "IC50 of HCVpp infection (Huh-7, luciferase)", "setting": "[9]", "value": 0.51, "unit": "µg/mL"},
      {"measurement": "IC90 of HCVpp infection (Huh-7, luciferase)", "setting": "[9]", "value": 6, "unit": "µg/mL"},
      {"measurement": "IC50 of HCVpp infection (Huh-7, luciferase)", "setting": "[10]", "value": 1.6, "unit": "µg/mL"},
      {"measurement": "IC90 of HCVpp infection (Huh-7, luciferase)", "setting": "[10]", "value": 15, "unit": "µg/mL"},
      {"measurement": "IC50 of HCVpp infection (Huh-7, luciferase)", "setting": "[11]", "value": 0.9, "unit": "µg/mL"},
      {"measurement": "IC90 of HCVpp infection (Huh-7, luciferase)", "setting": "[11]", "value": 8.3, "unit": "µg/mL"},
      {"measurement": "IC50 of HCVpp infection (Huh-7, luciferase)", "setting": "[12]", "value": 0.64, "unit": "µg/mL"},
      {"measurement": "IC90 of HCVpp infection (Huh-7, luciferase)", "setting": "[12]", "value": 7, "unit": "µg/mL"},
      {"measurement": "IC50 of HCVpp infection (Huh-7, luciferase)", "setting": "[13]", "value": "< 0.41", "unit": "µg/mL"},
      {"measurement": "IC90 of HCVpp infection (Huh-7, luciferase)", "setting": "[13]", "value": 1.8, "unit": "µg/mL"},
      {"measurement": "IC50 of HCVpp infection (Huh-7, luciferase)", "setting": "[14]", "value": 3, "unit": "µg/mL"},
      {"measurement": "IC90 of HCVpp infection (Huh-7, luciferase)", "setting": "[14]", "value": "> 15", "unit": "µg/mL"},
      {"measurement": "IC50 of HCVpp infection (Huh-7, luciferase)", "setting": "[15]", "value": "< 0.41", "unit": "µg/mL"},
      {"measurement": "IC90 of HCVpp infection (Huh-7, luciferase)", "setting": "[15]", "value": 2.15, "unit": "µg/mL"},
      {"measurement": "EC50, neutralization of Con1 HCVpp entry (Huh-7.5, luciferase)", "setting": "[16]", "value": 0.511, "unit": "µg/mL"},
      {"measurement": "EC50, neutralization of J6 HCVpp entry (Huh-7.5, luciferase)", "setting": "[17]", "value": 0.793, "unit": "µg/mL"},
      {"measurement": "neutralization of J6 HCVcc infection, fold better than AP33", "setting": "[17]", "value": "≥ 4.7", "unit": "fold"}
    ]},
    {"binder": "RH-C/RK2b Fab (Fab, V domains shown, also called Fab fragment of RH-C/RK2b) VH: QVQLQESGPGLVKPSETLSLTCTVSGDSITSGYWNWIRQPPGRALEWMGYISYSGSTYYNLSLRSRITISRDTSKNQYSLRLSSVTAADTAMYYCALITTTTYAMDYWGQGTTVTVSS VL: EIVLTQSPSSLSASVGDRVTITCRASESVDGYGNSFLHWFQQKPGKAPKLLIYLASNLNSGVPSRFSGSGSGTDFTLTISSLQPEDFATYYCQQNNVDPWTFGQGTKLEIK", "values": [
      {"measurement": "Kd", "setting": "[18]", "value": 50, "unit": "nM"},
      {"measurement": "Kd", "setting": "[19]", "value": "~0.5", "unit": "nM"}
    ]},
    {"binder": "RHb-h/Vl (humanized heavy chain RHb-h with chimeric light chain) (antibody, V domains shown, also called RHb-h/V1) VH: QVQLQESGPGLVKPSETLSLTCTVSGDSITSGYWNWIRQPPGRALEYMGYISYSGSTYYNLSLRSRITISRDTSKNQYSLRLSSVTAADTAMYYCALITTTTYAMDYWGQGTTVTVS VL: NIVLTQSPVSLAVSLGQRATISCRASESVDGYGNSFLHWFQQKPGQPPKLLIYLASNLNSGVPARFSGSGSRTDFTLTIDPVEADDAATYYCQQNNVDPWTFGGGTKLEIK", "values": [
      {"measurement": "EC50 (read off the curve)", "setting": "[20]", "value": "~0.02", "unit": "µg/mL"},
      {"measurement": "binding result", "setting": "[21]", "value": "binds"},
      {"measurement": "EC50 (read off the curve)", "setting": "[22]", "value": "~0.02", "unit": "µg/mL"},
      {"measurement": "binding result", "setting": "[23]", "value": "no binding (tested: about 500 ng/ml)"}
    ]},
    {"binder": "humanized AP33 antibody RH-H/RK2bc (antibody, V domains shown) VH: QVQLQESGPGLVKPSETLSLTCTVSGDSITSGYWNWIRQPPGRALEYMGYISYSGSTYYNLSLRSRITISRDTSKNQYSLRLSSVTAADTAMYYCARITTTTYAMDYWGQGTTVTVS VL: EIVLTQSPSSLSASVGDRVTITCRASESVDGYGNSFLHWFQQKPGKAPKLLIYLASNLNSGVPSRFSGSGSRTDFTLTISSLQPEDFATYYCQQNNVDPWTFGQGTKLEIK", "values": [
      {"measurement": "EC50 (read off the curve)", "setting": "[24]", "value": "~0.04", "unit": "µg/mL"},
      {"measurement": "EC50 (read off the curve)", "setting": "[25]", "value": "~0.03", "unit": "µg/mL"},
      {"measurement": "binding result", "setting": "[26]", "value": "no binding (tested: about 1000 ng/ml)"}
    ]}
  ]
}
